Data from article PMC4579020, “Reassembly and co-crystallization of a family 9 processive endoglucanase from its component parts: structural and functional significance of the intermodular linker” (PeerJ, 2015).

T1: GH9 catalytic module of Cel9I from Clostridium thermocellum, untagged (Clostridium thermocellum)
T1 chain: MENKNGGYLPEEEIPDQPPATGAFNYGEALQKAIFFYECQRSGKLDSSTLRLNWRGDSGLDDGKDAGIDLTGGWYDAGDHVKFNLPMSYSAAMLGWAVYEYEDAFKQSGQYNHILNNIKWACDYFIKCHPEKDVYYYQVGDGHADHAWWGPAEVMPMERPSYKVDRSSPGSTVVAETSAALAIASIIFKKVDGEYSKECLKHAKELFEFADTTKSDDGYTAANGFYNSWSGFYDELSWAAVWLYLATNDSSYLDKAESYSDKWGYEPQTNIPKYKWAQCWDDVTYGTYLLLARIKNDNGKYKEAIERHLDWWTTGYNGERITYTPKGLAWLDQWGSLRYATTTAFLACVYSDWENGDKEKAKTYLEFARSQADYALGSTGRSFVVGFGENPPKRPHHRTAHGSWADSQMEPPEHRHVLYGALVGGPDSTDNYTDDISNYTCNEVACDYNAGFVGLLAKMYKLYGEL

T2: CBM3c module of Cel9I with its adjacent N-terminal linker, C-terminally His-tagged (Clostridium thermocellum, UniProt Q02934 54-516)
T2 construct: Cloning is described in Burstein et al., 2009 and Gilad et al., 2003; also called CBM3cL; CBM3c with linker; source: E. coli BL21(DE3)RIL, purified (Ni-IDA); not shown: His tag, C-terminal, kept
T2 sequence: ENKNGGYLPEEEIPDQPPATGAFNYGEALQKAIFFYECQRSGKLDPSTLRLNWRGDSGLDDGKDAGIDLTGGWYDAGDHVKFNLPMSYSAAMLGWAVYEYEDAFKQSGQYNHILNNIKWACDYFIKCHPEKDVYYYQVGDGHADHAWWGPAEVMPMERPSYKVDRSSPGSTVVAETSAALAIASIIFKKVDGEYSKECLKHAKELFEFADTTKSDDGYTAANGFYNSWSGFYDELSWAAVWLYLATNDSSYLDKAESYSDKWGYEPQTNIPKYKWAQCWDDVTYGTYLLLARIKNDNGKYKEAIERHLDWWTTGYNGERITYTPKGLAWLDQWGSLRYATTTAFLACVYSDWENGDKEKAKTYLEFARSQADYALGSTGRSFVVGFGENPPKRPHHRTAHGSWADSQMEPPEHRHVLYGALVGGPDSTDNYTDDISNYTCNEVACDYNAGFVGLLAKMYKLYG


Experiments:
[1] = target: GH9 catalytic module of Cel9I from Clostridium thermocellum, N-terminally His-tagged (Clostridium thermocellum)
[2] = target: T1, GH9 catalytic module of Cel9I from …; assay: ITC; VP-ITC, 298 K; about 300 µM CBM3c injected into 65 µM GH9; 50 mM Tris-HCl pH 7.5, 150 mM NaCl, 0.05% sodium azide; one binding site model; CBM3c concentrations corrected to give a stoichiometry of one; two titrations; details: both partners purified
[3] = target: T2, CBM3c module of Cel9I with its adjacent …; assay: as above; details: both partners purified

Binder	CMCase activity (reducing sugar released in 10 min, 333 K, pH 6.0) of 70 pmol His-tagged GH9 mixed with increasing amounts of CBM3cNL, relative to intact Cel9I set as 100% (% of intact Cel9I activity) [1]	Kd [2] [nM]	Kd [3] [nM]
CBM3c module of Cel9I without the N-terminal linker, C-terminally His-tagged (domain or fragment, one bound Ca2+ in the crystal. Limits are the crystallized untagged GH9 entity (466 aa, about 52 kDa as on SDS-PAGE). Paper residues 1-446 are entity 21-466 (offset +20, from Tyr440, Gly444 and end …)) EVPEDEIFVEAGVNASGNNFIEIKAIVNNKSGWPARVCENLSFRYFINIEEIVNAGKSASDLQVSSSYNQGAKLSDVKHYKDNIYYVEVDLSGTKIYPGGQSAYKKEVQFRISAPEGTVFNPENDYSYQGLSAGTVVKSEYIPVYDAGVLVFGREP	10	290 to 430	
GH9 catalytic module of Cel9I from Clostridium thermocellum, untagged (domain or fragment, one bound Ca2+ in the crystal. Limits are the crystallized untagged GH9 entity (466 aa, about 52 kDa as on SDS-PAGE). Paper residues 1-446 are entity 21-466 (offset +20, from Tyr440, Gly444 and end …)) MENKNGGYLPEEEIPDQPPATGAFNYGEALQKAIFFYECQRSGKLDSSTLRLNWRGDSGLDDGKDAGIDLTGGWYDAGDHVKFNLPMSYSAAMLGWAVYEYEDAFKQSGQYNHILNNIKWACDYFIKCHPEKDVYYYQVGDGHADHAWWGPAEVMPMERPSYKVDRSSPGSTVVAETSAALAIASIIFKKVDGEYSKECLKHAKELFEFADTTKSDDGYTAANGFYNSWSGFYDELSWAAVWLYLATNDSSYLDKAESYSDKWGYEPQTNIPKYKWAQCWDDVTYGTYLLLARIKNDNGKYKEAIERHLDWWTTGYNGERITYTPKGLAWLDQWGSLRYATTTAFLACVYSDWENGDKEKAKTYLEFARSQADYALGSTGRSFVVGFGENPPKRPHHRTAHGSWADSQMEPPEHRHVLYGALVGGPDSTDNYTDDISNYTCNEVACDYNAGFVGLLAKMYKLYGEL			1300 to 2000
